Consider 3 substances from article PMC3348462.

The pKa is the pH at which an ionisable group is half protonated. A higher pKa goes with a group that holds its proton tightly.

This data set addresses Glu148 (UniProt position 148, MVLGREGPTVQ). In words: kinetics. The conditions noted are these: membrane-reconstituted, turning over in Cl-/36Cl- exchange (Cl- present).
In the case of “CLC-ec1 (H+/Cl- exchange transporter ClcA), wild type (Escherichia coli)”, the pKa is given as 6.2±0.1.

Substance CLC-ec1 E203Q (Escherichia coli; E203Q) displayed a pKa of 6.2±0.5.

CLC-ec1 Y445L (Escherichia coli; Y445L): the pKa is recorded as 4.7±0.1.
